Test results taken from patent US20230053214.

Biological target: human tau (441 amino acids), wild-type

B1: human wild-type p38γ (HA-tagged) (protein)
chain: MSSPPPARSGFYRQEVTKTAWEVRAVYRDLQPVGSGAYGAVCSAVDGRTGAKVAIKKLYRPFQSELFAKRAYRELRLLKHMRHENVIGLLDVFTPDETLDDFTDFYLVMPFMGTDLGKLMKHEKLGEDRIQFLVYQMLKGLRYIHAAGIIHRDLKPGNLAVNEDCELKILDFGLARQADSEMTGYVVTRWYRAPEVILNWMRYTQTVDIWSVGCIMAEMITGKTLFKGSDHLDQLKEIMKVTGTPPAEFVQRLQSDEAKNYMKGLPELEKKDFASILTNASPLAVNLLEKMLVLDAEQRVTAGEALAHPYFESLHDTEDEPQVQKYDDSFDDVDRTLDEWKRVTYKEVLSFKPPRQLGARVSKETPL
- in vitro kinase assay with tau variants mutated to alanine: confirmed site-specific phosphorylation of S199, T205, S396 and S404 by p38γ
- in vitro kinase assay, immunoblotting with phosphorylation site specific antibodies: showed phosphorylation of tau at S199, T205, S396 and S404, but not other sites tested by p38γ
